This note sets out measurements from paper PMC4173154 (Genes & Development, 2014).

The test concerns the target native Drosophila core histones (Drosophila, UniProt P84051 1-124; P02283 1-123; P02299 1-136; P84040 1-103). Description: co-sedimentation.

B1: recombinant Drosophila NLP, C-terminal 6-His tag (natural protein)
chain: MAEESFYGVTLTAESDSVTWDVDEDYARGQKLVIKQILLGAEAKENEFNVVEVNTPKDSVQIPIAVLKAGETRAVNPDVEFYESKVTFKLIKGSGPVYIHGHNIKDDVEVVDMEEDDEEDDVAEDEEDEHPKKRAKIENAADGKNAKNNKKK
Turning to B1, the binding result is “binds”.
